Assay results from the supplement of paper PMC9112550, “Optimization of the antimicrobial peptide Bac7 by deep mutational scanning” (BMC Biology, 2022).

Test system: Escherichia coli TOP10
Test: shrunken log2 fold change of peptide-encoding DNA abundance (4.5 h post-induction vs induction); higher = less antimicrobial activity (less host growth inhibition)
Settings: time post-induction: 4.5 h; library: site-saturation at positions 5, 18, 19, 20
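Also: peptides expressed intracellularly from a pBAD plasmid library in pooled LB shake-flask culture, induced with 0.3% L-arabinose, DNA abundance read by NGS, three biological replicates, DESeq2 with apeglm shrinkage.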

Sequence | shrunken log2 fold change
RRIRIRPPRLPRPRPRPEIRPRP | -0.0172
RRIRSRPPRLPRPRPRPEWIPRP | 0.021
RRIRNRPPRLPRPRPRPDMYPRP | -0.00473
RRIRWRPPRLPRPRPRPYERPRP | -0.0653
RRIRFRPPRLPRPRPRPYLIPRP | -0.417
RRIRPRPPRLPRPRPRPVQPPRP | 0.000272
RRIRNRPPRLPRPRPRPVLAPRP | 0.093
RRIRTRPPRLPRPRPRPLIYPRP | -0.174
RRIRIRPPRLPRPRPRPDGAPRP | -0.237
RRIRDRPPRLPRPRPRPPKKPRP | 0.0806
RRIRQRPPRLPRPRPRPFQEPRP | -0.0113
RRIRHRPPRLPRPRPRPPPEPRP | 0.836
RRIRHRPPRLPRPRPRPAHWPRP | -0.179
RRIRTRPPRLPRPRPRPLDIPRP | -1.22
RRIRDRPPRLPRPRPRPLEMPRP | 0.0813
RRIRTRPPRLPRPRPRPHYEPRP | -0.174
RRIRERPPRLPRPRPRPNLSPRP | -0.15
RRIRRRPPRLPRPRPRPKWAPRP | 0.0296
RRIRCRPPRLPRPRPRPWYLPRP | -0.0282
RRIRDRPPRLPRPRPRPFWRPRP | 0.0187
RRIRERPPRLPRPRPRPSQDPRP | -0.137
RRIRERPPRLPRPRPRPTRIPRP | 0.17
RRIRHRPPRLPRPRPRPGFLPRP | -0.0294

Sequence | shrunken log2 fold change
RRIRDRPPRLPRPRPRPFFWPRP | 0.504
RRIRGRPPRLPRPRPRPGHIPRP | 0.299
RRIRGRPPRLPRPRPRPMMNPRP | 0.159
RRIRVRPPRLPRPRPRPPSEPRP | -0.124
RRIRKRPPRLPRPRPRPVLRPRP | 0.0359
RRIRHRPPRLPRPRPRPSPGPRP | -0.051
RRIRPRPPRLPRPRPRPTTIPRP | -0.223
RRIRMRPPRLPRPRPRPMGKPRP | 0.0275
RRIRMRPPRLPRPRPRPYWYPRP | -0.0684
RRIRPRPPRLPRPRPRPPECPRP | 0.338
RRIRTRPPRLPRPRPRPTALPRP | 0.0207
RRIRSRPPRLPRPRPRPTMNPRP | -0.225
RRIRCRPPRLPRPRPRPGWIPRP | 0.198
RRIRCRPPRLPRPRPRPDHPPRP | 0.264
RRIRTRPPRLPRPRPRPEKYPRP | -0.156
RRIRPRPPRLPRPRPRPAHCPRP | 0.0637
RRIRARPPRLPRPRPRPPACPRP | 0.817
RRIRTRPPRLPRPRPRPYFLPRP | -1.18
RRIRTRPPRLPRPRPRPCYNPRP | -0.645
RRIRLRPPRLPRPRPRPYPQPRP | -0.364
RRIRQRPPRLPRPRPRPEGWPRP | 0.856
RRIRMRPPRLPRPRPRPGYNPRP | -0.282
RRIRDRPPRLPRPRPRPFIRPRP | -0.29

Sequence | shrunken log2 fold change
RRIRLRPPRLPRPRPRPINWPRP | -0.434
RRIRNRPPRLPRPRPRPMRTPRP | 0.312
RRIRGRPPRLPRPRPRPLWQPRP | 0.766
RRIRGRPPRLPRPRPRPYVEPRP | -0.00776
RRIRARPPRLPRPRPRPAGKPRP | 0.164
RRIRFRPPRLPRPRPRPGERPRP | 0.266
RRIRLRPPRLPRPRPRPVWWPRP | 0.88
RRIRYRPPRLPRPRPRPHSYPRP | -0.188
RRIRRRPPRLPRPRPRPEVWPRP | 1.74
RRIRYRPPRLPRPRPRPGEDPRP | -0.00904
RRIRYRPPRLPRPRPRPNHDPRP | -0.433
RRIRERPPRLPRPRPRPKRLPRP | 0.0323
RRIRPRPPRLPRPRPRPWYMPRP | -0.247
RRIRKRPPRLPRPRPRPFASPRP | 0.193
RRIRDRPPRLPRPRPRPGCIPRP | -0.158
RRIRRRPPRLPRPRPRPSVEPRP | 0.0256
RRIRMRPPRLPRPRPRPEVAPRP | 3.75
RRIRARPPRLPRPRPRPVQDPRP | -0.0965
RRIRGRPPRLPRPRPRPVSTPRP | 0.691
RRIRPRPPRLPRPRPRPAWYPRP | 0.0306
RRIRNRPPRLPRPRPRPEMTPRP | -0.059
RRIRWRPPRLPRPRPRPSMQPRP | -0.0561
RRIRMRPPRLPRPRPRPCNKPRP | -0.372

Sequence | shrunken log2 fold change
RRIRGRPPRLPRPRPRPLRAPRP | 1.72
RRIRVRPPRLPRPRPRPVFVPRP | -0.0229
RRIRCRPPRLPRPRPRPACIPRP | -0.186
RRIRLRPPRLPRPRPRPMANPRP | -0.0744
RRIRTRPPRLPRPRPRPQRKPRP | 0.138
RRIRHRPPRLPRPRPRPEMAPRP | 0.253
RRIRKRPPRLPRPRPRPSRHPRP | 0.0967
RRIRFRPPRLPRPRPRPRAMPRP | 0.241
RRIRFRPPRLPRPRPRPICLPRP | -0.548
RRIRRRPPRLPRPRPRPRHIPRP | 0.945
RRIRGRPPRLPRPRPRPDNVPRP | -0.011
RRIRYRPPRLPRPRPRPPIFPRP | -0.381
RRIRQRPPRLPRPRPRPYSMPRP | -0.031
RRIRQRPPRLPRPRPRPTCKPRP | 0.0706
RRIRKRPPRLPRPRPRPRCNPRP | 0.196
RRIRKRPPRLPRPRPRPMLQPRP | 0.122
RRIRTRPPRLPRPRPRPECCPRP | 0.348
RRIRARPPRLPRPRPRPSHLPRP | -0.41
RRIRWRPPRLPRPRPRPHWQPRP | -0.00204
RRIRKRPPRLPRPRPRPCYNPRP | -0.428
RRIRARPPRLPRPRPRPHHPPRP | -0.242
RRIRWRPPRLPRPRPRPEKVPRP | 0.115
